Data taken from article PMC4996939.

B1: HA-tagged Activin/Nodal type I receptor ALK4 [not stated] / Myc-tagged mouse Fscn1 [mouse] (parent)
chain 1: not shown
chain 2: SGPRGVQALLCACTSCLQANYTCETDGACMVSIFNLDGMEHHVRTCIPKVELVPAGKPFYCLSSEDLRNTHCCYTDYCNRIDLRVPSGHLKEPEHPSMWGPVELVGIIAGPVFLLFLIIIIVFLVINYHQRVYHNRQRLDMEDPSCEMCLSKDKTLQDLVYDLSTSGSGSGLPLFVQRTVARTIVLQEIIGKGRFGEVWRGRWRGGDVAVKIFSSREERSWFREAEIYQTVMLRHENILGFIAADNKDNGTWTQLWLVSDYHEHGSLFDYLNRYTVTIEGMIKLALSAASGLAHLHMEIVGTQGKPGIAHRDLKSKNILVKKNGMCAIADLGLAVRHDAVTDTIDIAPNQRVGTKRYMAPEVLDETINMKHFDSFKCADIYALGLVYWEIARRCNSGGVHEEYQLPYYDLVPSDPSIEEMRKVVCDQKLRPNIPNWWQSYEALRVMGKMMRECWYANGAARLTALRIKKTLSQLSVQEDVKI
B2: HA-tagged TGF-β type I receptor ALK5 [not stated] / Myc-tagged mouse Fscn1 [mouse] (parent)
chain 1: not shown
chain 2: LQCFCHLCTKDNFTCVTDGLCFVSVTETTDKVIHNSMCIAEIDLIPRDRPFVCAPSSKTGSVTTTYCCNQDHCNKIELPTTVKSSPGLGPVELAAVIAGPVCFVCISLMLMVYICHNRTVIHHRVPNEEDPSLDRPFISEGTTLKDLIYDMTTSGSGSGLPLLVQRTIARTIVLQESIGKGRFGEVWRGKWRGEEVAVKIFSSREERSWFREAEIYQTVMLRHENILGFIAADNKDNGTWTQLWLVSDYHEHGSLFDYLNRYTVTVEGMIKLALSTASGLAHLHMEIVGTQGKPAIAHRDLKSKNILVKKNGTCCIADLGLAVRHDSATDTIDIAPNHRVGTKRYMAPEVLDDSINMKHFESFKRADIYAMGLVFWEIARRCSIGGIHEDYQLPYYDLVPSDPSVEEMRKVVCEQKLRPNIPNRWQSCEALRVMAKIMRECWYANGAARLTALRIKKTLSQLSQQEGIKM

Variants of: B1
Test: co-immunoprecipitation (IP anti-Myc, IB anti-HA) with band quantification
Conditions: HEK293 cells, 60 mm dishes, CA-ALK4-HA 2 μg, Myc-mFscn1 1.5 μg, no TGF-β1 or Activin A in the CA lane

Row | Variant | ratio to parent
1 | chain 2 T183D | 2.34

Variants of: B2
Test: as above
Conditions: HEK293 cells, 60 mm dishes, CA-ALK5-HA 2 μg, Myc-mFscn1 1.5 μg, no TGF-β1 or Activin A in the CA lane

Row | Variant | ratio to parent
2 | chain 2 T171D | 1.87

Same assay, conditions: transfected cells in 60 mm dishes, ALK5 KR-HA 2 μg, Myc-mFscn1 1.5 μg

Row | Variant | ratio to parent
3 | chain 2 K199R | 0.56
